The assay deals with T1, PLA2 (Bovine pancreas, EC 3.1.1.4) (Bos taurus, UniProt P00593).
T1 construct: 0.18 Unit PLA2 (Bovine pancreas, EC 3.1.1.4, Sigma); purchased Sigma; host or cells: bovine pancreas
As to the kind of experiment: Inhibitory effect of synthetic peptides on PLA2 in vitro ([14C]-arachidonic acid release). As to conditions: peptides 1×10^−8 M, preincubated 15 min at 37° C.; compared with the peptides known as PLA2 inhibitors. Format: biochemical. The source says:
It has been examined whether synthetic peptides contain inhibitory effect on PLA2 activity. A established PLA2 assay method was used to determine the enzymatic activity by measuring the release [^14C]-arachidonic acid from 1-acyl-2-[1-^14C]arachidonic acid-glycerophospho-ethanolamine (Biochem. Pharmacol. 54, 259–268, 1997). To determine the inhibitory activity, 0.18 Unit PLA2 (Bovine pancreas, EC 3.1.1.4, Sigma; 1.0 unit will hydrolyze […] of L-phosphatidylcholine to L-lysophosphatidylcholine and a fatty acid per min. at pH 8.0 at 37° C.) was preincubated for 15 minutes with the synthetic peptides (1×10^−8 M) at 37° C. in […] before adding 1-acyl-2-[1-^14C]arachidonic acid-glycerophospho-ethanolamine. The control was also PLA2 preincubated with buffer. After pre-incubation, PLA2 activity was assayed using sonicated liposomes, prepared as established method (Biochem. Biophys. Acta. 1083, 80–88, 1991). […] of 1-acyl-2-[1-^14C]arachidonic acid-glycerophospho-ethanolamine (about 2×10^5 dpm) was added in pre-incubated mixture, and incubated for 1 hr at 37° C. […]
For inhibitory test of the peptides given, each value is the mean of data from three separate experiments (S.D.<10%). The value of PLA2 activity incubated without peptides was determined as 100% PLA2 activity that is 5.57 pmole arachidonyl/hr. % Inhibition was shown in FIG. 1.

T1 sequence (P00593 23-145): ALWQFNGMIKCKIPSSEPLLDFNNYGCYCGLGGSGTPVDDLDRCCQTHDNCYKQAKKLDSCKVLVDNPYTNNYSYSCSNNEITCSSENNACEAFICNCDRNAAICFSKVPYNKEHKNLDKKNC

Take “KVLDGQDP [Peptide R2, synthetic peptide of the invention]”: the “PLA2 activity (FIG. 1), result in words” value was “significantly reduced”.
As for “KVLDPVKG [Peptide R1, synthetic peptide of the invention]”, the “PLA2 activity (FIG. 1), result in words” value is on record as “significantly reduced”.

The values above are taken from patent US7037502B2, “Peptide with the amino acid sequence of KVLDGQDP having anti-inflammatory properties” (priority 2001, dated 2006).
